Laboratory results: US20240409635A1 (VIBRANT PHARMA, published 2024)
Numbering of substitutions follows the chain as printed. Blank lines part the entries; values can stand above or below the binder they belong to.

How the values were obtained:
Experiment in all cases: BLI, antibody on AHC sensor, antigen as analyte
[1] = biological target: T1, recombinant human tumor antigen CEACAM-6 (ACRO systems, CE6-H5223) (human, UniProt P40199 35-320)
T1 construct: Bought
T1 sequence (looked up): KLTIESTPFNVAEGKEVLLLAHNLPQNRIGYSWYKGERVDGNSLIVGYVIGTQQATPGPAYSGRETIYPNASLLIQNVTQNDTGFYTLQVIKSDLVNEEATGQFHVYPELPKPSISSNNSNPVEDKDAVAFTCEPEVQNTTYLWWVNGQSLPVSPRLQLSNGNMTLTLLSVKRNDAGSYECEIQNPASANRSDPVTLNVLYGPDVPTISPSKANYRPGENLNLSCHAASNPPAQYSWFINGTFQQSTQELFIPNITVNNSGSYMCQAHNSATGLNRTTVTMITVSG

[2] = biological target: T2, recombinant human tumor antigen HER2 (ERBB2, ACRO systems, HE2-H5212) (human, UniProt P04626 23-652)
T2 construct: Bought

[3] = biological target: T3, recombinant human protein CD3ε/δ (ACRO systems, CDD-H52W1) (human, UniProt P07766 23-126; P04234 22-105)
T3 construct: Bought heterodimer
T3 sequence (P07766 23-126, stated change not applied, chain 1 of 2): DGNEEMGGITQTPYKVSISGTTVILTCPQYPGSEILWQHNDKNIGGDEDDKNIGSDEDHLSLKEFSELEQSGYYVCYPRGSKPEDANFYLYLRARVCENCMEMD
T3 sequence (P04234 22-105, stated change not applied, chain 2 of 2): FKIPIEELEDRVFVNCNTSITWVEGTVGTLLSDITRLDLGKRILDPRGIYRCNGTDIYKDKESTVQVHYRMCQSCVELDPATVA

Kd [1]: 13.3 nM
koff [1]: 0.00297 s⁻¹
kon [1]: 223000 M⁻¹ s⁻¹
Kd [2]: 37.5 nM
koff [2]: 0.00693 s⁻¹
kon [2]: 185000 M⁻¹ s⁻¹
Kd [3]: 1.3 nM
koff [3]: 0.000402 s⁻¹
kon [3]: 309000 M⁻¹ s⁻¹
B1: unilateral CD3/CEA-CAM6/HER2 trispecific antibody 701 (other)
chain 1: EVKLLESGGGLVQPKGSLKLSCAASGFTFNTYAMNWVRQAPGKGLEWVARIRSKYNNYATYYADSVKDRFTISRDDSQSILYLQMNNLKTEDTAMYYCVRHGNFGNSYVSWFAYWGQGTLVTVSSASTKGPSVFPLAPCSRSTSESTAALGCLVKDYFPEPVTVSWNSGALTSGVHTFPAVLQSSGLYSLSSVVTVPSSSLGTKTYTCNVDHKPSNTKVDKRVESKYGPPCPPCPAPEAAGGPSVFLFPPKPKDTLMISRTPEVTCVVVDVSQEDPEVQFNWYVDGVEVHNAKTKPREEQFNSTYRVVSVLTVLHQDWLNGKEYKCKVSNKGLPSSIEKTISKAKGQPREPQVYTLPPCQEEMTKNQVSLWCLVKGFYPSDIAVEWESNGQPENNYKTTPPVLDSDGSFFLYSRLTVDKSRWQEGNVFSCSVMHEALHNHYTQKSLSLSL
chain 2: QVQLVQSGGGLVQAGGSLRLSCAASGRTFSSYAMAWFRQAPGKEREFVAAISWSGANIYVADSVKGRFTISRDNAKDTVYLQMNSLKPEDTAVYYCAVKLGFAPVEERQYDYWGQGTQVTVSSESKYGPPCPPCPAPEAAGGPSVFLFPPKPKDTLMISRTPEVTCVVVDVSQEDPEVQFNWYVDGVEVHNAKTKPREEQFNSTYRVVSVLTVLHQDWLNGKEYKCKVSNKGLPSSIEKTISKAKGQPREPQVCTLPPSQEEMTKNQVSLSCAVKGFYPSDIAVEWESNGQPENNYKTTPPVLDSDGSFFLVSRLTVDKSRWQEGNVFSCSVMHEALHNRFTQKSLSLSL
chain 3: QAVVTQESALTTSPGETVTLTCRSSTGAVTTSNYANWVQEKPDHLFTGLIGGTNKRAPGVPARFSGSLIGDKAALTITGAQTEDEAIYFCALWYSNLWVFGGGTKVEIKRTVAAPSVFIFPPSDEQLKSGTASVVCLLNNFYPREAKVQWKVDNALQSGNSQESVTEQDSKDSTYSLSSTLTLSKADYEKHKVYACEVTHQGLSSPVTKSFNRGECGGGGSGGGGSQVKLEESGGGLVQAGGSLRLSCRTSGRTNSVYTMGWFRQAPGKEREFVAQIMWGAGTNTHYADSVKGRFTISRDSAESTVYLQMNSLKPEDTAVYYCAANRGIPIAGRQYDYWGQGTQVTVSS

Kd [1]: 5.16 nM
koff [1]: 0.00187 s⁻¹
kon [1]: 363000 M⁻¹ s⁻¹
Kd [2]: 16.3 nM
koff [2]: 0.00356 s⁻¹
kon [2]: 218000 M⁻¹ s⁻¹
Kd [3]: 0.379 nM
koff [3]: 8.4e-05 s⁻¹
kon [3]: 222000 M⁻¹ s⁻¹
B2: unilateral CD3/CEA-CAM6/HER2 trispecific antibody 703 (other)
chain 1: B1 chain 1
chain 2: B1 chain 2
chain 3: QVKLEESGGGLVQAGGSLRLSCRTSGRTNSVYTMGWFRQAPGKEREFVAQIMWGAGTNTHYADSVKGRFTISRDSAESTVYLQMNSLKPEDTAVYYCAANRGIPIAGRQYDYWGQGTQVTVSSGGGGSGGGGSQAVVTQESALTTSPGETVTLTCRSSTGAVTTSNYANWVQEKPDHLFTGLIGGTNKRAPGVPARFSGSLIGDKAALTITGAQTEDEAIYFCALWYSNLWVFGGGTKVEIKRTVAAPSVFIFPPSDEQLKSGTASVVCLLNNFYPREAKVQWKVDNALQSGNSQESVTEQDSKDSTYSLSSTLTLSKADYEKHKVYACEVTHQGLSSPVTKSFNRGEC

Kd [1]: 4.16 nM
koff [1]: 0.0018 s⁻¹
kon [1]: 433000 M⁻¹ s⁻¹
Kd [2]: 20.7 nM
koff [2]: 0.00455 s⁻¹
kon [2]: 219000 M⁻¹ s⁻¹
Kd [3]: 0.351 nM
koff [3]: 6.18e-05 s⁻¹
kon [3]: 176000 M⁻¹ s⁻¹
B3: unilateral CD3/CEA-CAM6/HER2 trispecific antibody 709 (other)
chain 1: B1 chain 1
chain 2: QVKLEESGGGLVQAGGSLRLSCRTSGRTNSVYTMGWFRQAPGKEREFVAQIMWGAGTNTHYADSVKGRFTISRDSAESTVYLQMNSLKPEDTAVYYCAANRGIPIAGRQYDYWGQGTQVTVSSESKYGPPCPPCPAPEAAGGPSVFLFPPKPKDTLMISRTPEVTCVVVDVSQEDPEVQFNWYVDGVEVHNAKTKPREEQFNSTYRVVSVLTVLHQDWLNGKEYKCKVSNKGLPSSIEKTISKAKGQPREPQVCTLPPSQEEMTKNQVSLSCAVKGFYPSDIAVEWESNGQPENNYKTTPPVLDSDGSFFLVSRLTVDKSRWQEGNVFSCSVMHEALHNRFTQKSLSLSL
chain 3: QVQLVQSGGGLVQAGGSLRLSCAASGRTFSSYAMAWFRQAPGKEREFVAAISWSGANIYVADSVKGRFTISRDNAKDTVYLQMNSLKPEDTAVYYCAVKLGFAPVEERQYDYWGQGTQVTVSSGGGGSGGGGSQAVVTQESALTTSPGETVTLTCRSSTGAVTTSNYANWVQEKPDHLFTGLIGGTNKRAPGVPARFSGSLIGDKAALTITGAQTEDEAIYFCALWYSNLWVFGGGTKVEIKRTVAAPSVFIFPPSDEQLKSGTASVVCLLNNFYPREAKVQWKVDNALQSGNSQESVTEQDSKDSTYSLSSTLTLSKADYEKHKVYACEVTHQGLSSPVTKSFNRGEC

Kd [1]: 4.48 nM
koff [1]: 0.00179 s⁻¹
kon [1]: 398000 M⁻¹ s⁻¹
Kd [2]: 15.4 nM
koff [2]: 0.00383 s⁻¹
kon [2]: 249000 M⁻¹ s⁻¹
Kd [3]: 0.686 nM
koff [3]: 0.000127 s⁻¹
kon [3]: 186000 M⁻¹ s⁻¹
B4: unilateral CD3/CEA-CAM6/HER2 trispecific antibody 710 (other)
chain 1: B3 chain 2 with C254Y, S259C, S271W, A273L, V312Y, R340H, F341Y
chain 2: B1 chain 1 with Y354C, C359S, W371S, L373A, Y412V, H440R, Y441F
chain 3: B3 chain 3

Kd [1]: 4.52 nM
koff [1]: 0.00254 s⁻¹
kon [1]: 562000 M⁻¹ s⁻¹
Kd [2]: 38.9 nM
koff [2]: 0.00888 s⁻¹
kon [2]: 228000 M⁻¹ s⁻¹
Kd [3]: 1.41 nM
koff [3]: 0.000516 s⁻¹
kon [3]: 367000 M⁻¹ s⁻¹
B5: unilateral CD3/CEA-CAM6/HER2 trispecific antibody 711 (other)
chain 1: QVQLVQSGGGLVQAGGSLRLSCAASGRTFSSYAMAWFRQAPGKEREFVAAISWSGANIYVADSVKGRFTISRDNAKDTVYLQMNSLKPEDTAVYYCAVKLGFAPVEERQYDYWGQGTQVTVSSGGGGSGGGGSEVKLLESGGGLVQPKGSLKLSCAASGFTFNTYAMNWVRQAPGKGLEWVARIRSKYNNYATYYADSVKDRFTISRDDSQSILYLQMNNLKTEDTAMYYCVRHGNFGNSYVSWFAYWGQGTLVTVSSASTKGPSVFPLAPCSRSTSESTAALGCLVKDYFPEPVTVSWNSGALTSGVHTFPAVLQSSGLYSLSSVVTVPSSSLGTKTYTCNVDHKPSNTKVDKRVESKYGPPCPPCPAPEAAGGPSVFLFPPKPKDTLMISRTPEVTCVVVDVSQEDPEVQFNWYVDGVEVHNAKTKPREEQFNSTYRVVSVLTVLHQDWLNGKEYKCKVSNKGLPSSIEKTISKAKGQPREPQVYTLPPCQEEMTKNQVSLWCLVKGFYPSDIAVEWESNGQPENNYKTTPPVLDSDGSFFLYSRLTVDKSRWQEGNVFSCSVMHEALHNHYTQKSLSLSL
chain 2: B3 chain 2
chain 3: QAVVTQESALTTSPGETVTLTCRSSTGAVTTSNYANWVQEKPDHLFTGLIGGTNKRAPGVPARFSGSLIGDKAALTITGAQTEDEAIYFCALWYSNLWVFGGGTKVEIKRTVAAPSVFIFPPSDEQLKSGTASVVCLLNNFYPREAKVQWKVDNALQSGNSQESVTEQDSKDSTYSLSSTLTLSKADYEKHKVYACEVTHQGLSSPVTKSFNRGEC
